From publication doi:10.1101/2024.07.03.601791 (bioRxiv, 2024)
Values joined by “and” are separate entries in the source; they are usually repeats but may differ in a detail not shown here. Equal values may be shown once. Values belong to the binder of their own block, whether it stands above or below them.

Tests used:
Karyopherinβ2 (Kapβ2) [1] = target: T1, Karyopherinβ2 (Kapβ2) (human, UniProt Q92973-2 1-890); assay: hydrogel binding assay
T1 sequence (looked up): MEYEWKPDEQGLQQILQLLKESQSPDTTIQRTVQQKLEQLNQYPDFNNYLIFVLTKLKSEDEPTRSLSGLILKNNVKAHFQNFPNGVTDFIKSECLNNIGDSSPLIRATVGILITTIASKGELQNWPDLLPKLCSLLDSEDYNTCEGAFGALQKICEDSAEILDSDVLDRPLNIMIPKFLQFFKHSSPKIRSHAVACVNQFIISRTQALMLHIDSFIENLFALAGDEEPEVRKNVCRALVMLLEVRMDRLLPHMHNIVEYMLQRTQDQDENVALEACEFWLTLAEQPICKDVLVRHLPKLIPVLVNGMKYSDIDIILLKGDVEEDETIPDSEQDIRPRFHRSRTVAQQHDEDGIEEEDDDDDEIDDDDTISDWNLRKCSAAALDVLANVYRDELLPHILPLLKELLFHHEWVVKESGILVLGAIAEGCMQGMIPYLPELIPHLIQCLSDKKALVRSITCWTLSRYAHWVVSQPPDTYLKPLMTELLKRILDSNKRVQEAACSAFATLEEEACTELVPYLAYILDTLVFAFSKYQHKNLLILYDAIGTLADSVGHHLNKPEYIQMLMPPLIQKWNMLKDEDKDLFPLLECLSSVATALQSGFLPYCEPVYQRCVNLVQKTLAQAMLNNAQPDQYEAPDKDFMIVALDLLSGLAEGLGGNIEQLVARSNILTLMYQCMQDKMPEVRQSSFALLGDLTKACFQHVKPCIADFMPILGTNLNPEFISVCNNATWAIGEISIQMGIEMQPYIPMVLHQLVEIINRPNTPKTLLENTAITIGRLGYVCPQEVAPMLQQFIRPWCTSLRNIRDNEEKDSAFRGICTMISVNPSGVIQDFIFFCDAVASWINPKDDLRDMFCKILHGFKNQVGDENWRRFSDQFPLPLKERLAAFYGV

[2] = target: T2, mCherry fusion LC-domain of FUS (residue 2–214, mCh:FUS-LC) (UniProt P35637 2-214); assay: hydrogel binding assay
T2 sequence (looked up): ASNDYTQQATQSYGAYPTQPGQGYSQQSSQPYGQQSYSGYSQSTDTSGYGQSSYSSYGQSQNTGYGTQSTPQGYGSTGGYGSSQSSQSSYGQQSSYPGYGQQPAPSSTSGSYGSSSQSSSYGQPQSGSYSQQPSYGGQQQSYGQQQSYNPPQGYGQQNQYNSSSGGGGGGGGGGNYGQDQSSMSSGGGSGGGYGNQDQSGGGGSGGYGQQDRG

Karyopherinβ2 (Kapβ2) [3] = target: T1, Karyopherinβ2 (Kapβ2); assay: chemical tongue
Karyopherinβ2 (Kapβ2) [4] = target: T1, Karyopherinβ2 (Kapβ2); assay: SEC
Karyopherinβ2 (Kapβ2) [5] = target: T1, Karyopherinβ2 (Kapβ2); assay: AUC
GTP-bound Ran (Q69L) = GTP-bound Ran (Q69L) (UniProt P62826 1-216, Q69L); assay: pull-down

binding result (Karyopherinβ2 (Kapβ2) [1]): binds
binding result [2]: binds
B1: GFP fusion 20 repeats of PR (GFP:PR20) (peptide)
chain: PRPRPRPRPRPRPRPRPRPRPRPRPRPRPRPRPRPRPRPR

binding result (Karyopherinβ2 (Kapβ2) [3]): binds
B2: PR20 (peptide)
peptide: PRPRPRPRPRPRPRPRPRPRPRPRPRPRPRPRPRPRPRPR

stoichiometry N (Karyopherinβ2 (Kapβ2) [4]): 2
stoichiometry N (Karyopherinβ2 (Kapβ2) [5]): 1 and ≥ 2
B3: maltose-binding protein (MBP)-PR18 (peptide)
chain: PRPRPRPRPRPRPRPRPRPRPRPRPRPRPRPRPRPR

binding result (GTP-bound Ran (Q69L)): binds
B4: GST-Kapβ2 (natural protein)
chain: MEYEWKPDEQGLQQILQLLKESQSPDTTIQRTVQQKLEQLNQYPDFNNYLIFVLTKLKSEDEPTRSLSGLILKNNVKAHFQNFPNGVTDFIKSECLNNIGDSSPLIRATVGILITTIASKGELQNWPDLLPKLCSLLDSEDYNTCEGAFGALQKICEDSAEILDSDVLDRPLNIMIPKFLQFFKHSSPKIRSHAVACVNQFIISRTQALMLHIDSFIENLFALAGDEEPEVRKNVCRALVMLLEVRMDRLLPHMHNIVEYMLQRTQDQDENVALEACEFWLTLAEQPICKDVLVRHLPKLIPVLVNGMKYSDIDIILLKGDVEEDETIPDSEQDIRPRFHRSRTVAQQHDEDGIEEEDDDDDEIDDDDTISDWNLRKCSAAALDVLANVYRDELLPHILPLLKELLFHHEWVVKESGILVLGAIAEGCMQGMIPYLPELIPHLIQCLSDKKALVRSITCWTLSRYAHWVVSQPPDTYLKPLMTELLKRILDSNKRVQEAACSAFATLEEEACTELVPYLAYILDTLVFAFSKYQHKNLLILYDAIGTLADSVGHHLNKPEYIQMLMPPLIQKWNMLKDEDKDLFPLLECLSSVATALQSGFLPYCEPVYQRCVNLVQKTLAQAMLNNAQPDQYEAPDKDFMIVALDLLSGLAEGLGGNIEQLVARSNILTLMYQCMQDKMPEVRQSSFALLGDLTKACFQHVKPCIADFMPILGTNLNPEFISVCNNATWAIGEISIQMGIEMQPYIPMVLHQLVEIINRPNTPKTLLENTAITIGRLGYVCPQEVAPMLQQFIRPWCTSLRNIRDNEEKDSAFRGICTMISVNPSGVIQDFIFFCDAVASWINPKDDLRDMFCKILHGFKNQVGDENWRRFSDQFPLPLKERLAAFYGV

binding result (Karyopherinβ2 (Kapβ2) [3]): binds
B5: GR20 (peptide)
peptide: GRGRGRGRGRGRGRGRGRGRGRGRGRGRGRGRGRGRGRGR
